{
  "source": "patent US20210292762",
  "about": "“ICAM-1 APTAMERS, DIAGNOSTIC AND THERAPEUTIC USES THEREOF” (BRACCO IMAGING S.P.A., published 2021)",
  "key": {"ICAM-1 [1]": {"target": "T1, ICAM-1 (Homo sapiens, UniProt P05362 P05362:28-532)", "T1 sequence (P05362 28-532, one chain of several)": "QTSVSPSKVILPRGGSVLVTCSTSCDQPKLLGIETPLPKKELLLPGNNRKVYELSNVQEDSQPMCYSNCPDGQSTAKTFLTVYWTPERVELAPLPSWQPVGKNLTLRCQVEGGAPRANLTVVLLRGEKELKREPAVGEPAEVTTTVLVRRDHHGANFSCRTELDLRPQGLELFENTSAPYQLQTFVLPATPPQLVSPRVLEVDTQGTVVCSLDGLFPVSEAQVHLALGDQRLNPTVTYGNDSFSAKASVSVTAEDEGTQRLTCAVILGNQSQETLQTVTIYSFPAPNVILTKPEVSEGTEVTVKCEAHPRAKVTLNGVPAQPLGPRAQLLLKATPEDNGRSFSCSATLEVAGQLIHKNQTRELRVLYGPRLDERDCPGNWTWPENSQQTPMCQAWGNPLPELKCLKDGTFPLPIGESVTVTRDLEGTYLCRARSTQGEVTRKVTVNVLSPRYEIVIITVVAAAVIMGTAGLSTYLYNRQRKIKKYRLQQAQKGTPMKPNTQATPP", "test": "flow; COS7-ICAM-1 cells, 37 C 30 min, yeast tRNA 200 ug/mL pre-treatment, n=6", "details": "tags: full-length human ICAM-1 cDNA (pCMV6-ICAM-1) transiently expressed in COS7 cells; label: 5'-Alexa Fluor 488"}, "[2]": {"target": "ICAM-1 (endogenous, TNFalpha-induced) (UniProt P05362 P05362:28-532)", "sequence (P05362 28-532, one chain of several)": "as above", "test": "flow; TNFalpha-stimulated HMEC-1 cells, 37 C 30 min, yeast tRNA 200 ug/mL pre-treatment, n=3", "details": "tags: HMEC-1 cells stimulated with TNFalpha 48 h; label: 5'-Alexa Fluor 488", "protocol": "HMEC-1 cells were stimulated with TNFalpha for 48h to induce ICAM-1 expression."}, "ICAM-1 [3]": {"target": "T1, ICAM-1", "test": "RT-qPCR cell binding, 50 nM RNA, 37 C 15 min", "details": "tags: full-length human ICAM-1 cDNA (pCMV6-ICAM-1) transiently expressed in COS7 cells", "protocol": "To the aim of testing if the short aptamer 10.T (SEQ ID NO: 1) contained the active site of the original molecule 12c-10 (SEQ ID NO: 2) and preserved high binding and affinity to COS7-ICAM-1, binding assays were performed maintaining the same conditions used for long aptamers screening.\nThe RNA sequence 10.T was incubated at 50 nM, as final concentration, for 15 minutes at 37° C. on COS7-WT and COS7-ICAM-1. The ratio comparing binding values of COS7-ICAM-1 over COS7-WT (fold change) is reported in FIG. 5, showing a value of 2.2."}, "ICAM-1 [4]": {"target": "T1, ICAM-1", "test": "RT-qPCR cell binding on COS7-ICAM-1, 37 C 15 min, yeast tRNA 200 ug/mL pre-treatment", "details": "tags: full-length human ICAM-1 cDNA (pCMV6-ICAM-1) transiently expressed in COS7 cells", "protocol": "The same experiment was carried out with the unrelated aptamer A10, as negative control (sequence disclosed in Lupold S. E. et al., Cancer Res. 2002, 62, 4029-4033). The binding was evaluated by RT-qPCR."}, "ICAM-1 [5]": {"target": "T1, ICAM-1", "test": "RT-qPCR cell binding, 50 nM RNA, 37 C 15 min, yeast tRNA pre-treatment", "details": "tags: full-length human ICAM-1 cDNA (pCMV6-ICAM-1) transiently expressed in COS7 cells", "protocol": "Following the analysis of the enriched sequences, binding assays by RT-qPCR were performed in order to select the sequences able to bind COS7-ICAM-1. Essentially, DNA sequences were amplified and transcribed. Then, RNA sequences were incubated at 50 nM, as final concentration, for 15 minutes at 37° C., after pre-treatment with yeast tRNA 200 μg/mL, on COS7-WT and COS7-ICAM-1. Following incubation, cells were washed 3 times with PBS and recovered in TRIsure reagent. An RNA sequence used as reference control was spotted in each point for the normalization. A fold ratio was calculated comparing binding values of COS7-ICAM-1 over COS7-WT. Twelve sequences representatives of couples or groups of identical sequences were screened. Those with higher fold ratio were chosen for further analysis performing experimental triplicates."}},
  "data": [
    {"binder": "Alexa488-10.T (ssRNA, 2'-F pyrimidines; 5'-C12 amino linker) RNA: UCAUGAUACGUUGCGUGAGCAACUGCGGCGCUAAAGUUUGGUUGACUAGUACAUG", "values": [
      {"measurement": "Kd", "setting": "ICAM-1 [1]", "result": 116, "unit": "nM"},
      {"measurement": "Kd", "setting": "[2]", "result": 106, "unit": "nM"}
    ]},
    {"binder": "10.T (ssRNA, 2'-F pyrimidines) RNA: UCAUGAUACGUUGCGUGAGCAACUGCGGCGCUAAAGUUUGGUUGACUAGUACAUG", "values": [
      {"measurement": "binding signal", "setting": "ICAM-1 [3]", "result": "2.2 fold COS7-ICAM-1 over COS7-WT"},
      {"measurement": "Kd", "setting": "ICAM-1 [4]", "result": 376, "unit": "nM"}
    ]},
    {"binder": "12c-10 (ssRNA, 2'-F pyrimidines) RNA: GGGAAGAGAAGGACAUAUGAUCAUGAUACGUUGCGUGAGCAACUGCGGCGCUAAAGUUUGGUUGACUAGUACAUGACCACUUGA", "values": [
      {"measurement": "binding signal", "setting": "ICAM-1 [5]", "result": "3.13 fold COS7-ICAM-1 over COS7-WT"}
    ]}
  ]
}
